# In patent US20180334702A1 (SYSMEX, published 2018):
# Where two headings read alike, the source gives them in different places. No end group written: not given here. *: point of attachment. aminohexane = linker joining biotin to the N-terminal residue; Biotin = O=C1N[C@H]2[C@H](CS[C@H]2CCCCC(=O)*)N1
# Key:
# Test in all cases: cell-based or functional assay
# [1] = target: T1, CDK1/cyclin A2 (UniProt P06493 1-297; P20248 1-432, limits assumed)
# [2] = target: T2, CDK2/cyclin E1 (UniProt P24941 1-298; P24864 1-410)
# [3] = target: T3, CDK4/cyclin D3 (UniProt P11802 1-303; P30281 1-292)
# [4] = target: T1, CDK1/cyclin A2; remark: listed apart in the source
# [5] = target: T4, CDK6/cyclin D3 (UniProt Q00534 1-326; P30281 1-292)
# [6] = target: T2, CDK2/cyclin E1; remark: listed apart in the source
# [7] = target: T3, CDK4/cyclin D3; remark: listed apart in the source
# [8] = target: T1, CDK1/cyclin A2; remark: listed apart in the source
# [9] = target: T2, CDK2/cyclin E1; remark: listed apart in the source
# [10] = target: T1, CDK1/cyclin A2; remark: listed apart in the source
# [11] = target: T4, CDK6/cyclin D3; remark: listed apart in the source
# [12] = target: T2, CDK2/cyclin E1; remark: listed apart in the source
# [13] = target: T3, CDK4/cyclin D3; remark: listed apart in the source
# [14] = target: T1, CDK1/cyclin A2; remark: listed apart in the source
# [15] = target: T4, CDK6/cyclin D3; remark: listed apart in the source
# [16] = target: T2, CDK2/cyclin E1; remark: listed apart in the source
# [17] = target: T3, CDK4/cyclin D3; remark: listed apart in the source
# [18] = target: T3, CDK4/cyclin D3; remark: listed apart in the source
# T1 sequence (P06493 whole entry, chain 1 of 2): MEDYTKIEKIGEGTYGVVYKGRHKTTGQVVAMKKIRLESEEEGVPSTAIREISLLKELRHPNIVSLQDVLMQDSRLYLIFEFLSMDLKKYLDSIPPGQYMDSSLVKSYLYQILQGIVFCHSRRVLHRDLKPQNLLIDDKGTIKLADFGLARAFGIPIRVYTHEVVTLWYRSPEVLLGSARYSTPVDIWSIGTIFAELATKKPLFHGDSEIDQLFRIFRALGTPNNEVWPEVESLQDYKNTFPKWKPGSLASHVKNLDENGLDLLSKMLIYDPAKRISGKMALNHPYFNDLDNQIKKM
# T1 sequence (P20248 whole entry, chain 2 of 2): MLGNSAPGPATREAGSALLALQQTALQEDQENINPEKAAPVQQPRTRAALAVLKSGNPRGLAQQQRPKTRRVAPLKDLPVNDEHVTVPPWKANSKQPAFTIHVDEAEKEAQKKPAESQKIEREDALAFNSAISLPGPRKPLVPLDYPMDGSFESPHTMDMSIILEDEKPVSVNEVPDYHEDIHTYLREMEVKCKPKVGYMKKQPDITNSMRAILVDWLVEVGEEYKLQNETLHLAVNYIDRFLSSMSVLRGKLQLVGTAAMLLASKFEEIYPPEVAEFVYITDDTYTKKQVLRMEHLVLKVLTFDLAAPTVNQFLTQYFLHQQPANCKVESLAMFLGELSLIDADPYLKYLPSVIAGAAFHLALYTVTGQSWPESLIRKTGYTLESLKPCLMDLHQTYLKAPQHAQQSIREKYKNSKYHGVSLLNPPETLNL
# T3 sequence (P11802 whole entry, chain 1 of 2): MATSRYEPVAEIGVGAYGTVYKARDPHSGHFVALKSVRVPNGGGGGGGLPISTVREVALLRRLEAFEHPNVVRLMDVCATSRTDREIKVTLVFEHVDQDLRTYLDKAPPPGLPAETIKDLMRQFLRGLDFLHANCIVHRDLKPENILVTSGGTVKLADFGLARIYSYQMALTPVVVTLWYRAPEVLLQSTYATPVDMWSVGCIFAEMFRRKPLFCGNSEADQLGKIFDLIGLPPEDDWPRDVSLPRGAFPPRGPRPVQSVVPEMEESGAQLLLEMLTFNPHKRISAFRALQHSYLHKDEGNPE
# T3 sequence (P30281 whole entry, chain 2 of 2): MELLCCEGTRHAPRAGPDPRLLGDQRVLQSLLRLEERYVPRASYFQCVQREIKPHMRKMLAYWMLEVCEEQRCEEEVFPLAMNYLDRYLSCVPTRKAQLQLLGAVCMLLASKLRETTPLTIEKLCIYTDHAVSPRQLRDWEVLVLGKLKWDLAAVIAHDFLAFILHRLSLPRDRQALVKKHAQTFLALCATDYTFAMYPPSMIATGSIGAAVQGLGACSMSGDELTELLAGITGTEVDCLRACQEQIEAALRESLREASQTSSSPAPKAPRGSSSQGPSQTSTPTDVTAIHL
# T4 sequence (Q00534 whole entry, chain 1 of 2): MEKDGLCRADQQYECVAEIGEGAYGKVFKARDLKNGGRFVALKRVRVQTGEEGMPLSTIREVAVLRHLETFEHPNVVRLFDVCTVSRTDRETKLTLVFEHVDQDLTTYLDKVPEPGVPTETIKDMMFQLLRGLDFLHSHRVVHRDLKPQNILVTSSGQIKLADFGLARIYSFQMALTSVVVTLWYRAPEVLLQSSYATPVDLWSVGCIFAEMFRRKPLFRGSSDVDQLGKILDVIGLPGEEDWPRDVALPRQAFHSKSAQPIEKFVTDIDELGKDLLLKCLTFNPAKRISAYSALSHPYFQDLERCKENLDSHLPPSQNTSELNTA
# T4 sequence (P30281 whole entry, chain 2 of 2): as the sequence (P30281 whole entry, chain 2 of 2) above
binder,measurement,setting,value
{Biotin-aminohexane}-GGGKAPLTPKDAD [Polypeptide 22],relative luminescence intensity (CDK6 = 100%),[1],27%
same,relative luminescence intensity (CDK6 = 100%),[2],15%
same,relative luminescence intensity (CDK6 = 100%),[3],46%
{Biotin-aminohexane}-RRRFRPASPLDGPPD [Polypeptide 18],relative luminescence intensity (CDK6 = 100%),[1],22%
same,relative luminescence intensity (CDK6 = 100%),[3],14%
{Biotin-aminohexane}-GAPWSPNPWWRGGGG [Polypeptide 3],relative reactivity (Polypeptide 3 = 100%),[4],100%
same,relative reactivity (Polypeptide 3 = 100%),[5],100%
same,relative reactivity (Polypeptide 3 = 100%),[6],100%
same,relative reactivity (Polypeptide 3 = 100%),[7],100%
{Biotin-aminohexane}-GGGKAPLTPLDAD [Polypeptide 23],relative luminescence intensity (CDK6 = 100%),[3],37%
{Biotin-aminohexane}-GGGRAAPLSPIDHIPD [Polypeptide 25],relative luminescence intensity (CDK6 = 100%),[2],62%
same,relative luminescence intensity (CDK6 = 100%),[3],40%
{Biotin-aminohexane}-GGGRAAPLSPIPHIPR [Comparative Polypeptide 6],relative luminescence intensity (CDK6 = 100%),[1],119%
same,relative luminescence intensity (CDK6 = 100%),[2],44%
same,relative luminescence intensity (CDK6 = 100%),[3],190%
{Biotin-aminohexane}-GAPWSPNDWWDGGGG [Polypeptide 27],relative reactivity (Polypeptide 3 = 100%),[4],13%
same,relative reactivity (Polypeptide 3 = 100%),[5],33%
same,relative reactivity (Polypeptide 3 = 100%),[6],20%
same,relative reactivity (Polypeptide 3 = 100%),[7],37%
{Biotin-aminohexane}-PYKISEGLPTPAKMAPRSRI-NH2 [Comparative Polypeptide 4],relative luminescence intensity (CDK6 = 100%),[8],3250%
same,relative luminescence intensity (CDK6 = 100%),[9],2680%
{Biotin-aminohexane}-PYKISEGLPTPTKMTPRSRI [Comparative Polypeptide 1],relative value of the luminescence intensity (Comparative Polypeptide 2 = 1.00),[10],1.63 relative value
same,relative value of the luminescence intensity (Comparative Polypeptide 2 = 1.00),[11],0.43 relative value
same,relative value of the luminescence intensity (Comparative Polypeptide 2 = 1.00),[12],6.44 relative value
same,relative value of the luminescence intensity (Comparative Polypeptide 2 = 1.00),[13],0.15 relative value
same,Luminescence intensity,[14],6.76e+07
same,Luminescence intensity,[15],7.42e+06
same,Luminescence intensity,[16],1.04e+08
same,Luminescence intensity,[17],811000
{Biotin-aminohexane}-GMPWSPNPWWRGGGG [Polypeptide 1],relative value of the luminescence intensity (Comparative Polypeptide 2 = 1.00),[10],2.24 relative value
same,relative value of the luminescence intensity (Comparative Polypeptide 2 = 1.00),[11],7.06 relative value
same,relative value of the luminescence intensity (Comparative Polypeptide 2 = 1.00),[12],6.12 relative value
same,relative value of the luminescence intensity (Comparative Polypeptide 2 = 1.00),[13],18.6 relative value
same,Luminescence intensity,[14],9.32e+07
same,Luminescence intensity,[15],1.22e+08
same,Luminescence intensity,[16],9.92e+07
same,Luminescence intensity,[17],1.01e+08
{Biotin-aminohexane}-RRRFRPASPLRGPPK [Comparative Polypeptide 2],relative value of the luminescence intensity (Comparative Polypeptide 2 = 1.00),[10],1 relative value
same,relative value of the luminescence intensity (Comparative Polypeptide 2 = 1.00),[11],1 relative value
same,relative value of the luminescence intensity (Comparative Polypeptide 2 = 1.00),[12],1 relative value
same,relative value of the luminescence intensity (Comparative Polypeptide 2 = 1.00),[13],1 relative value
same,relative luminescence intensity (CDK6 = 100%),[1],318%
same,relative luminescence intensity (CDK6 = 100%),[2],321%
same,relative luminescence intensity (CDK6 = 100%),[3],245%
same,Luminescence intensity,[14],4.15e+07
same,Luminescence intensity,[15],1.73e+07
same,Luminescence intensity,[16],1.62e+07
same,Luminescence intensity,[17],5.44e+06
same,relative luminescence intensity (CDK6 = 100%),[8],606%
same,relative luminescence intensity (CDK6 = 100%),[9],198%
same,relative luminescence intensity (CDK6 = 100%),[18],51%
{Biotin-aminohexane}-GGGRAAPLSPDPHIPD [Polypeptide 24],relative luminescence intensity (CDK6 = 100%),[2],54%
same,relative luminescence intensity (CDK6 = 100%),[3],54%
{Biotin-aminohexane}-GGGKAPLTPKKAK [Comparative Polypeptide 5],relative luminescence intensity (CDK6 = 100%),[1],143%
same,relative luminescence intensity (CDK6 = 100%),[2],156%
same,relative luminescence intensity (CDK6 = 100%),[3],56%
{Biotin-aminohexane}-LVEMTGLSPRVIRVW [Comparative Polypeptide 7],relative luminescence intensity (CDK6 = 100%),[1],1150%
same,relative luminescence intensity (CDK6 = 100%),[2],10%
same,relative luminescence intensity (CDK6 = 100%),[3],55%
{Biotin-aminohexane}-LVEMTGLSPRDIRVD [Polypeptide 26],relative luminescence intensity (CDK6 = 100%),[1],295%
same,relative luminescence intensity (CDK6 = 100%),[3],18%
{Biotin-aminohexane}-GAPWSPDPWDDGGGG [Polypeptide 28],relative reactivity (Polypeptide 3 = 100%),[4],4%
same,relative reactivity (Polypeptide 3 = 100%),[5],25%
same,relative reactivity (Polypeptide 3 = 100%),[6],13%
same,relative reactivity (Polypeptide 3 = 100%),[7],50%
{Biotin-aminohexane}-PYKISEGLPTPTKMTPRSRI-NH2 [Comparative Polypeptide 3],relative luminescence intensity (CDK6 = 100%),[8],678%
same,relative luminescence intensity (CDK6 = 100%),[9],766%
same,relative luminescence intensity (CDK6 = 100%),[18],7%
